From publication PMC6463862, “Adaptive and degenerative evolution of the S-Phase Kinase-Associated Protein 1-Like family in Arabidopsis thaliana” (PeerJ, 2019) come the findings set out here.

In assay [1] the target is DIF (Arabidopsis (cDNA clone from the Arabidopsis Biological Resource Center)). Nature of the assay: two-hybrid; F-box proteins as GAL4-BD baits (pGBK-T7, AH109), ASK1/2 as GAL4-AD preys (pGAD-T7, Y187), mated; growth on SD-Leu-Trp-Ade-His + X-alpha-gal at 30 °C normalised to growth on SD-Leu-Trp, and beta-galactosidase activity assay (two independent assays); results told together.

Assay [2] deals with T1, JMJ22 (Arabidopsis (cDNA clone from the …, UniProt Q67XX3 1-502)).
T1 construct: F-box protein JMJ22; CDS PCR amplified from an ABRC cDNA clone and ligated in frame to the 3' end of the GAL4-BD CDS in pGBK-T7 (bait); source: yeast two-hybrid fusion
T1 sequence (looked up): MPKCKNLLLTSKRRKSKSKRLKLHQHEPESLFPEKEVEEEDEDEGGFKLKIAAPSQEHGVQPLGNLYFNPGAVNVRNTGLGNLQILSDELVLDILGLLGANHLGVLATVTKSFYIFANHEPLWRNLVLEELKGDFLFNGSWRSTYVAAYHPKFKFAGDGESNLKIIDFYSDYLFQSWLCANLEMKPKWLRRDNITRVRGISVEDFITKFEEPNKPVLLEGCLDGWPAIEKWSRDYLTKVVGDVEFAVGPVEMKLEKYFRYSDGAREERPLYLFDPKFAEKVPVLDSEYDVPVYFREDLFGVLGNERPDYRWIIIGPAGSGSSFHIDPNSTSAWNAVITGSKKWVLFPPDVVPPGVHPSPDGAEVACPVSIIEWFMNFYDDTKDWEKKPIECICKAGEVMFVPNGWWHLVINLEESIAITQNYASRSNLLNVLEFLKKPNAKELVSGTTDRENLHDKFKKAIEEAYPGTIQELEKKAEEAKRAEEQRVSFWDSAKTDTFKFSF
The assay is described as above. The note with it: partners not purified.

B1: Arabidopsis Skp1-Like 1 (natural protein, A. thaliana, UniProt Q39255 1-160, looked up)
chain: MSAKKIVLKSSDGESFEVEEAVALESQTIAHMVEDDCVDNGVPLPNVTSKILAKVIEYCKRHVEAAASKAEAVEGAATSDDDLKAWDADFMKIDQATLFELILAANYLNIKNLLDLTCQTVADMIKGKTPEEIRTTFNIKNDFTPEEEEEVRRENQWAFE
notes: ASK1 (A. thaliana Skp1-Like 1); CDS PCR amplified from an ABRC cDNA clone and ligated in frame to the 3' end of the GAL4-AD CDS in pGAD-T7 (prey); also called ASK1; source: yeast two-hybrid fusion
In the case of B1, the fold interaction strength against ASK2 in assay [1] and in assay [2] was above 2 fold in each case.
